Laboratory results published in the supplement of paper PMC10126150.
± gives the standard deviation of the averaged measurements.

test system: ATP; test: switch fluorescence ratio, 500 uM ATP over buffer (Cy3 cluster intensity, sum of 5 cycles each) (fold (ratio)); higher = stronger signal-on switching upon ATP binding; sequences stand for … in TCGTCGGCAGCGTCAGATGTGTATAAGAGACAGTTTTTTTTTTTTTTTTTTTTTTTTT…TC; conditions: aptamer strand: ATP DNA aptamer (quencher-CACCTGGGGGAGTATTGCGGAGGAAGG + anchor), 100 nM annealed; ATP concentration: 500 uM
Outline: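 Switching-strand clusters labelled with Cy3 on a modified Illumina MiSeq flow-cell were annealed to 100 nM quencher-labelled ATP aptamer, imaged in selection buffer, and re-imaged after 15 min with 500 uM ATP at 22 °C. This was done over five cycles with NaOH stripping and re-annealing in between. The fluorescence ratio is summed target-cycle over summed buffer-cycle Cy3 intensity per cluster, averaged per switch-domain sequence, excluding clusters outside 100-1000 RFU.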
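Also: ATP exposure 15 min at 22 °C before imaging.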

Sequence | switch fluorescence ratio
TCTGAAGGTG | 1.28 ± 0.22
GCCGTAGCTG | 1.02 ± 0.037
CCCATGTGAG | 1.09 ± 0.022
TTGGGGGCTA | 1 ± 0.04
GGCACTGGTA | 0.981 ± 0.022
GGGGAATCAG | 1.03 ± 0.017
ACTGTTAATG | 1.01 ± 0.026
GTCCTTTGCC | 1.06 ± 0.011
CGTGAAATCG | 1.02 ± 0.019
GTGTTCGCTT | 0.984 ± 0.0099
CATGTCATTG | 1.01 ± 0.015
TGCTTTACGC | 1.03 ± 0.03
TTATGCCACG | 1.04 ± 0.016
CGAGTATGGA | 0.9923 ± 0.0042
GCAAGCTGCA | 1.016 ± 0.0087
CGGGGGGGCG | 1.03 ± 0.074
ATAGGCTAGT | 1.02 ± 0.025
GGGCAATTGG | 0.992 ± 0.0056
TCGAGTTTGC | 0.931 ± 0.027
CTGTATATAG | 1.017 ± 0.0083
GTTTCCATGG | 0.973 ± 0.033
GGGGCTGCGG | 0.973 ± 0.052
GCTTCAAGTC | 0.978 ± 0.018
ATAATTTAAT | 0.9986 ± 0.0074
CGGCTATTAC | 3.64 ± 1.3

Sequence | switch fluorescence ratio
TTGGATTGTT | 1.04 ± 0.025
TTGGGAACGT | 1 ± 0.11
AAGGTGAAGG | 1.02 ± 0.035
GCAGTGGGTA | 0.978 ± 0.016
ACTAGATTCT | 0.979 ± 0.013
TATGAAAGGC | 0.991 ± 0.053
GAGGGGCTTC | 1 ± 0.016
AGGGAAGGAA | 1.01 ± 0.037
CAGCGAGTCC | 1.067 ± 0.0012
TATTAGTGAA | 1.01 ± 0.013
GATAAAAATA | 0.998 ± 0.018
CCCCACTGTG | 1.53 ± 0.69
CCTCATCGAG | 1.07 ± 0.024
GGGCTATTAT | 1.02 ± 0.081
ATGAGAATAG | 1.01 ± 0.0016
TTTACCTCGA | 1.027 ± 0.0069
AGGTTGGGC | 1.04 ± 0.034
ATGGGGCCTG | 0.9828 ± 0.0078
AATCGAGGAG | 0.957 ± 0.053
GAAACTGGGG | 1.02 ± 0.031
GGGGGTGGAA | 0.97 ± 0.028
ATCATTGGGC | 0.988 ± 0.025
ATGTAACTTT | 1.16 ± 0.27
GAGGGCACAT | 1.03 ± 0.05
TTGGGATACG | 1.18 ± 0.23

Sequence | switch fluorescence ratio
GTCTTTTGTA | 0.983 ± 0.04
TGGGCATATG | 0.993 ± 0.014
AGTTAAAAAT | 0.996 ± 0.022
AAAATGGTGC | 1.06 ± 0.065
GCGCATTAGC | 1.3 ± 0.061
TCGGGACATA | 1.02 ± 0.041
TAAACGCGGG | 1.04 ± 0.093
AGTGGTATGA | 1.01 ± 0.048
CCGGGAGTCG | 1.06 ± 0.017
CCGTTGAAAT | 1.22 ± 0.011
TTAGTGTCGA | 1.02 ± 0.04
GCTAAAGGGG | 1.19 ± 0.31
GTTTGTTAAT | 1.007 ± 0.0044
GGGGCTAGGG | 1 ± 0.032
GCAGCTTGCA | 0.993 ± 0.018
GCGTTGGAAA | 0.997 ± 0.015
GGCTCACTAG | 1.01 ± 0.05
TGACGTGCGC | 1.143 ± 0.0093
ACGCGTCAGC | 1.01 ± 0.021
ACCAATCGGG | 0.9917 ± 0.002
AAAGTTCGAA | 0.977 ± 0.035
AGGTATTCAG | 1.01 ± 0.033
ATACACGTTA | 1.23 ± 0.013
CATGCTTTGT | 0.9924 ± 0.0069
AGAGCCGGTG | 1 ± 0.041

Sequence | switch fluorescence ratio
GTTTTATGGA | 0.983 ± 0.034
GACCAGCCCC | 1.31 ± 0.098
GGGGATGTAG | 0.979 ± 0.026
GCGAGCCACG | 1.007 ± 0.0076
AGGCGCGCGG | 0.9507 ± 0.0057
AGTATTACGG | 0.9989 ± 0.0088
GTTATTCGGT | 0.991 ± 0.023
GGCGGGGGGT | 1.01 ± 0.024
GAGTCAGAAT | 1.01 ± 0.013
GGTTTGGGTG | 0.995 ± 0.04
CCATTTTTAC | 1.1 ± 0.13
TTGAAAAGAT | 1.05 ± 0.04
GGTCTGGAAG | 0.982 ± 0.035
GGGTACAGAT | 0.986 ± 0.0099
TGATTTTTCT | 1 ± 0.013
TTTTAGTGTC | 0.998 ± 0.072
GGGTGTTTGC | 1.02 ± 0.035
ACTCAAAACG | 1.11 ± 0.09
CTGGTTTCGG | 0.993 ± 0.022
ATGGCCGGTG | 1.006 ± 0.004
TCTGTATTCG | 1.005 ± 0.0033
AGTTTGGGGC | 0.984 ± 0.045
TGCTGTAAGG | 1 ± 0.036
GGGGAGGGCT | 0.964 ± 0.033
AAATGTATGT | 0.988 ± 0.037
